How the values were obtained:
[1] = target: SHP2-C SH2; assay: SH2 binding enrichment of the phosphorylated peptide, bacterial display (enrichment ratio); higher = better substrate or ligand; peptides without Tyr show the background
[2] = target: c-Src SH2; assay: as above
[3] = target: Grb2 SH2 (UniProt P62993); assay: as above
[4] = system: c-Src; assay: phosphorylation enrichment, bacterial display (enrichment ratio); higher = better substrate or ligand; peptides without Tyr show the background
[5] = target: FGFR3 (UniProt P22607); assay: as above
[6] = target: EPHB1 (UniProt P54762); assay: as above
[7] = target: Jak2 (UniProt O60674); assay: as above
[8] = system: Fer (mouse); assay: as above
[9] = target: Fes (UniProt P07332); assay: as above
[10] = system: AncSZ; assay: as above
[11] = system: c-Abl (mouse); assay: as above
[12] = target: MERTK (UniProt Q12866); assay: as above
[13] = target: FGFR1 (UniProt P11362); assay: as above
[14] = target: EPHB2 (UniProt P29323); assay: as above
[15] = target: Fyn (UniProt P06241); assay: as above
[16] = target: Hck (UniProt P08631); assay: as above
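Throughout, for SH2 binding enrichment of the phosphorylated peptide, bacterial display: peptide library displayed on the E. coli surface as eCPX fusions, selected cells deep-sequenced, score is each peptide's frequency after selection divided by its frequency in the input.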
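Throughout, for phosphorylation enrichment, bacterial display: 11-residue human phosphosite peptides and single-mutation variants displayed on the E. coli surface, counted by deep sequencing, each peptide's frequency after selection divided by its frequency in the unselected input library; frequency after pTyr selection over input frequency; kinase dosed for 20-30% of maximal phosphorylation in three min.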

Grb2 SH2, sequence (P62993 whole entry, looked up): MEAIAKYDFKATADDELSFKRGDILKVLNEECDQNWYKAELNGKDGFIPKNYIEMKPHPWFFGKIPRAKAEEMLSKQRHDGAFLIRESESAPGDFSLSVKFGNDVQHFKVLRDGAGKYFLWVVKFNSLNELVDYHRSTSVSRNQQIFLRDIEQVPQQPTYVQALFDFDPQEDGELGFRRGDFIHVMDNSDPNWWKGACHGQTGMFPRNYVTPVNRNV
Fes, sequence (P07332 whole entry, looked up): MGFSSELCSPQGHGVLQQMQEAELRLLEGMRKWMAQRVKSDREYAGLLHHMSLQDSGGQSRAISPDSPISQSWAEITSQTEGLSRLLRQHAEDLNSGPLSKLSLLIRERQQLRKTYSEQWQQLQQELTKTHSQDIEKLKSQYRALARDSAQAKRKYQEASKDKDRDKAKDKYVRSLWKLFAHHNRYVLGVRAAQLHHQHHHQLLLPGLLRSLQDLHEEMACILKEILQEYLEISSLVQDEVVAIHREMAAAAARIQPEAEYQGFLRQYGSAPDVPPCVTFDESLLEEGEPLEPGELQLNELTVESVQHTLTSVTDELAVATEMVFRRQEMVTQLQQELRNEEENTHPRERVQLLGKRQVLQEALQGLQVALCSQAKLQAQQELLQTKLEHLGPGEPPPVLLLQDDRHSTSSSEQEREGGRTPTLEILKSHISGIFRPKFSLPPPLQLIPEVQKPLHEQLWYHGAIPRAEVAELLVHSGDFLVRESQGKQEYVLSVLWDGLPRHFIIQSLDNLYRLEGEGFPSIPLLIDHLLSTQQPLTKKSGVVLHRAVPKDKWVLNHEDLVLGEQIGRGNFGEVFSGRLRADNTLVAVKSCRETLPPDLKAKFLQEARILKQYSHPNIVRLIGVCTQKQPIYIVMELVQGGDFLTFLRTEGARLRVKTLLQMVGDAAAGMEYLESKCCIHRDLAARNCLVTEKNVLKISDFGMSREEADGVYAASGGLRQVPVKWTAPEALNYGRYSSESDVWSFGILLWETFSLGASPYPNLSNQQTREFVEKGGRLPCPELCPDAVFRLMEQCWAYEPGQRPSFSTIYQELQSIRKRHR
Jak2, sequence (O60674 whole entry, looked up): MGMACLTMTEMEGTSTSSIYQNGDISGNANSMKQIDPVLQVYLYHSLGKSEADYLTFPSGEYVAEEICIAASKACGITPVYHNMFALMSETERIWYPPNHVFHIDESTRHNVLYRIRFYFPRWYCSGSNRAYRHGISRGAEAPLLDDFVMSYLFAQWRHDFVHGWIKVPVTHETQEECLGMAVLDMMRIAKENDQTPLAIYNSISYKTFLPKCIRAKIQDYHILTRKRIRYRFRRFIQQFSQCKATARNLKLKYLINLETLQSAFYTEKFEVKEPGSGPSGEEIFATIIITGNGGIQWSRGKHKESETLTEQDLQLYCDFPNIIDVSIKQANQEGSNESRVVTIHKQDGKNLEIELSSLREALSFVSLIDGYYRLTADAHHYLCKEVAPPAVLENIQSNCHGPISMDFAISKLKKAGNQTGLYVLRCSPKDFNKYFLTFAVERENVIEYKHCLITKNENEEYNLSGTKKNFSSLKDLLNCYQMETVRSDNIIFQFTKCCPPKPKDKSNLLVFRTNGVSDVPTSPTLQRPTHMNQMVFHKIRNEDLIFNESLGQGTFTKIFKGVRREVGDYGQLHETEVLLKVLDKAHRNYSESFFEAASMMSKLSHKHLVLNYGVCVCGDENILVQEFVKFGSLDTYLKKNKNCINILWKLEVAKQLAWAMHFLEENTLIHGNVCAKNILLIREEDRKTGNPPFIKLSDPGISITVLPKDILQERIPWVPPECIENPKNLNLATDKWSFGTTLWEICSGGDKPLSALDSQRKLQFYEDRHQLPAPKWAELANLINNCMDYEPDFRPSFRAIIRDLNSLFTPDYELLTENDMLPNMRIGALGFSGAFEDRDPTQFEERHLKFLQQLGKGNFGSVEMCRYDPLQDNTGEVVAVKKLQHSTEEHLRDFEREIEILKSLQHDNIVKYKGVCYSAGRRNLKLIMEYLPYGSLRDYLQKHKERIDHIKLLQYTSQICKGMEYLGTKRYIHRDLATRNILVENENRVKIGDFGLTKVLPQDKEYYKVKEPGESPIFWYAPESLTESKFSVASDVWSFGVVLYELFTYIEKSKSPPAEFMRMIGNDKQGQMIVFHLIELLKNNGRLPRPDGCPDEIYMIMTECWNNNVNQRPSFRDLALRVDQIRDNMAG
MERTK, sequence (Q12866 whole entry, looked up): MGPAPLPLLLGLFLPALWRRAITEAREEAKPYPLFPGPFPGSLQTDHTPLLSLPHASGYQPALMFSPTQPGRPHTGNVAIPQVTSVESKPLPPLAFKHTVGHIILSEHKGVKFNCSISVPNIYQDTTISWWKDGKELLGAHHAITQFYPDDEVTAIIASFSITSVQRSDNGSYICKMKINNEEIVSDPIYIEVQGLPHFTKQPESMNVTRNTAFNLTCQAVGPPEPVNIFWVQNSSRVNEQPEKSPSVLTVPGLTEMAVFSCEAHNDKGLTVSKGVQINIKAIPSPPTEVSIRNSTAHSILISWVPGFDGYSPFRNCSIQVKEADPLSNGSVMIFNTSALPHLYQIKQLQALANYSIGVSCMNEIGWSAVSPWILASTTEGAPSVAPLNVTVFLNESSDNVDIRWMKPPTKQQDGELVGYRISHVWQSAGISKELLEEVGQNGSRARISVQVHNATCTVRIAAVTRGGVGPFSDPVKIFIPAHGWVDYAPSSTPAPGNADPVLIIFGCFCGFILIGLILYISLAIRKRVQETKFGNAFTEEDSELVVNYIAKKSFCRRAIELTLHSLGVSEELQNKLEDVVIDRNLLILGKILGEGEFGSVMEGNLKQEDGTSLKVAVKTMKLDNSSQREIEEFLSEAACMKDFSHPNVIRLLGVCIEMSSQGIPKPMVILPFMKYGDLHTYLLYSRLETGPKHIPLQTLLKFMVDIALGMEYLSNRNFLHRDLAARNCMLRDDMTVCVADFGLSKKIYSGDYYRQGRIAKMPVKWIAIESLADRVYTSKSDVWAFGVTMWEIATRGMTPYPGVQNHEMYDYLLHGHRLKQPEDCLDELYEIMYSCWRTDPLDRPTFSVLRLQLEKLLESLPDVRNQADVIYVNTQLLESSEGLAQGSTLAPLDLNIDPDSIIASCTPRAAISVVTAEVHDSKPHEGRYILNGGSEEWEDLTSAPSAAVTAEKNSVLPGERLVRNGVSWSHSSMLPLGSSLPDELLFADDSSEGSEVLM
Fyn, sequence (P06241 whole entry, looked up): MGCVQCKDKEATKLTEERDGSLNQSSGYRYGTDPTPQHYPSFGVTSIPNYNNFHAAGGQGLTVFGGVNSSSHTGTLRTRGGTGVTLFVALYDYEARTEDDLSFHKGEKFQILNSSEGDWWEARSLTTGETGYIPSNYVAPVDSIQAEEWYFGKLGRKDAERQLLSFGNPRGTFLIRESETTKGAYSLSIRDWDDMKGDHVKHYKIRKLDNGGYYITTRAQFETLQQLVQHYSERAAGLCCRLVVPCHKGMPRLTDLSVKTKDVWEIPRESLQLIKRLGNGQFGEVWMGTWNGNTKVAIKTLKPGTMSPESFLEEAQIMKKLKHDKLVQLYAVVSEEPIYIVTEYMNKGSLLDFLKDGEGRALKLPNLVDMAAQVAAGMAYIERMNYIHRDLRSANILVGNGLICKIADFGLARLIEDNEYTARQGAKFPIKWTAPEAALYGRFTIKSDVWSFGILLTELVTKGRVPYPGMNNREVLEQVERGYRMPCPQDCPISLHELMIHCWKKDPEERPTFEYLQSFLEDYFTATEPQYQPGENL
FGFR3, sequence (P22607 whole entry, looked up): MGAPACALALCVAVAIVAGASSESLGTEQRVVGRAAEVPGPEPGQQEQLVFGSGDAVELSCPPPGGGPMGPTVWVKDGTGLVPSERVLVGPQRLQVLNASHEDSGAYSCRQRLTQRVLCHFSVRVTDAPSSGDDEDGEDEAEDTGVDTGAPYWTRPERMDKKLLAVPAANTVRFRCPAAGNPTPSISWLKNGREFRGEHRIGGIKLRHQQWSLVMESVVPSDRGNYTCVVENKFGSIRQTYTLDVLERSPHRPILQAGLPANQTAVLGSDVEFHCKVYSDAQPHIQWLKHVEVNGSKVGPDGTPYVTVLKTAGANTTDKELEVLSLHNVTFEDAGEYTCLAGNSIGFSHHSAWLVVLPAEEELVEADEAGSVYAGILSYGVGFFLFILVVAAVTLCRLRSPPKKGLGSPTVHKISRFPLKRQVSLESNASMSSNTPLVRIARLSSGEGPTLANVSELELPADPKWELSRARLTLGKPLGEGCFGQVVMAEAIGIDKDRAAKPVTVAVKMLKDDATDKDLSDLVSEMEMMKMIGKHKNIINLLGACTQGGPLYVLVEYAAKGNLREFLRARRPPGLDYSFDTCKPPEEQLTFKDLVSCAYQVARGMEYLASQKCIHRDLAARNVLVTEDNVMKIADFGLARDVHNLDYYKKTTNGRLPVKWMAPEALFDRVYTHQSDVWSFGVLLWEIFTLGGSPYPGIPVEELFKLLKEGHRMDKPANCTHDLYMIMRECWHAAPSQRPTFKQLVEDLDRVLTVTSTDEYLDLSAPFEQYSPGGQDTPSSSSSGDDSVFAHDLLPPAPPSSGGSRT
Hck, sequence (P08631 whole entry, looked up, the tested form may be a part): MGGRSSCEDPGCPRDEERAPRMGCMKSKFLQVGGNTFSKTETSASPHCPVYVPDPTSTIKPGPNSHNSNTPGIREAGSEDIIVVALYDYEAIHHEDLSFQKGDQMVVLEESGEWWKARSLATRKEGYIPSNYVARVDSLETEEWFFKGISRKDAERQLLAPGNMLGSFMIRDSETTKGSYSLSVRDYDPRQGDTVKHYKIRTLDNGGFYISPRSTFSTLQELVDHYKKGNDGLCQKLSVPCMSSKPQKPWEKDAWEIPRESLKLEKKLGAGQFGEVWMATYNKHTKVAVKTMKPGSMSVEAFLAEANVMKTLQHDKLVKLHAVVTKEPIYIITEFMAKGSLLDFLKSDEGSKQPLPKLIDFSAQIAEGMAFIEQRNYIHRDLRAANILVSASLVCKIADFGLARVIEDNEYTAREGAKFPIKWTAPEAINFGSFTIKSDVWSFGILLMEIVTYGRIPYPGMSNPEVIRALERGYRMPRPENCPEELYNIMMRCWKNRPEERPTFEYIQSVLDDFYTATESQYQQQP

With TEALFYTDDTA [ADPRS_Y75_YF] the SH2 binding enrichment [1] was 0.675, the SH2 binding enrichment [2] was 0.615 and the SH2 binding enrichment [3] was 0.739. The phosphorylation enrichment [4] was 0.634, the phosphorylation enrichment [5] was 0.754 and the phosphorylation enrichment [6] was 0.643. The phosphorylation enrichment [7] was 1.17, the phosphorylation enrichment [8] was 0.557 and the phosphorylation enrichment [9] was 1.44. It also gave a phosphorylation enrichment [10] of 1.26, a phosphorylation enrichment [11] of 0.787 and a phosphorylation enrichment [12] of 0.541. The phosphorylation enrichment [13] was 0.535, the phosphorylation enrichment [14] was 0.614 and the phosphorylation enrichment [15] was 0.568. The phosphorylation enrichment [16] was 0.602.
LSVMSYDLGMF [GBA3_Y174] gave an SH2 binding enrichment [1] of 0.887, an SH2 binding enrichment [2] of 0.603 and an SH2 binding enrichment [3] of 0.624. It also gave a phosphorylation enrichment [4] of 0.75, a phosphorylation enrichment [5] of 1.13 and a phosphorylation enrichment [6] of 0.876. For the same sequence, the phosphorylation enrichment [7] was 1.44, the phosphorylation enrichment [8] was 0.602 and the phosphorylation enrichment [9] was 1.59. It also gave a phosphorylation enrichment [10] of 1.31, a phosphorylation enrichment [11] of 1.07 and a phosphorylation enrichment [12] of 0.62. It also gave a phosphorylation enrichment [13] of 0.789, a phosphorylation enrichment [14] of 0.707 and a phosphorylation enrichment [15] of 0.759. The phosphorylation enrichment [16] was 0.947.
Sequence KVMANYVFKAG [MAML2_Y513_M514V_YF] has an SH2 binding enrichment [1] of 0.663, an SH2 binding enrichment [2] of 0.614 and an SH2 binding enrichment [3] of 1.1. For the same sequence, the phosphorylation enrichment [4] was 0.433, the phosphorylation enrichment [5] was 0.486 and the phosphorylation enrichment [6] was 0.396. For the same sequence, the phosphorylation enrichment [7] was 0.564, the phosphorylation enrichment [8] was 0.355 and the phosphorylation enrichment [9] was 0.656. For the same sequence, the phosphorylation enrichment [10] was 0.617, the phosphorylation enrichment [11] was 0.485 and the phosphorylation enrichment [12] was 0.401. It also gave a phosphorylation enrichment [13] of 0.459, a phosphorylation enrichment [14] of 0.515 and a phosphorylation enrichment [15] of 0.382. The phosphorylation enrichment [16] was 0.435.
In the case of FITVGYVDDTQ [HLA-B_Y51_S48T], the SH2 binding enrichment [1] is reported as 1.1, the SH2 binding enrichment [2] is reported as 0.736 and the SH2 binding enrichment [3] is reported as 0.779. It also gave a phosphorylation enrichment [4] of 0.432, a phosphorylation enrichment [5] of 0.741 and a phosphorylation enrichment [6] of 0.681. For the same sequence, the phosphorylation enrichment [7] was 0.877, the phosphorylation enrichment [8] was 0.528 and the phosphorylation enrichment [9] was 1.21. It also gave a phosphorylation enrichment [10] of 0.999, a phosphorylation enrichment [11] of 0.898 and a phosphorylation enrichment [12] of 0.482. It also gave a phosphorylation enrichment [13] of 0.658, a phosphorylation enrichment [14] of 0.611 and a phosphorylation enrichment [15] of 0.529. It also gave a phosphorylation enrichment [16] of 0.517.
TYEYKYPEGSS [TGM4_Y440] gave an SH2 binding enrichment [1] of 0.701, an SH2 binding enrichment [2] of 0.854 and an SH2 binding enrichment [3] of 0.821. The phosphorylation enrichment [4] was 0.525, the phosphorylation enrichment [5] was 0.755 and the phosphorylation enrichment [6] was 0.526. It also gave a phosphorylation enrichment [7] of 1.05, a phosphorylation enrichment [8] of 0.392 and a phosphorylation enrichment [9] of 1.11. It also gave a phosphorylation enrichment [10] of 1.32, a phosphorylation enrichment [11] of 0.777 and a phosphorylation enrichment [12] of 0.414. For the same sequence, the phosphorylation enrichment [13] was 0.517, the phosphorylation enrichment [14] was 0.492 and the phosphorylation enrichment [15] was 0.394. It also gave a phosphorylation enrichment [16] of 0.449.
With YTFTSYYMHWV [IGHV1-46_Y51] the SH2 binding enrichment [1] was 1.1, the SH2 binding enrichment [2] was 0.613 and the SH2 binding enrichment [3] was 0.978. For the same sequence, the phosphorylation enrichment [4] was 0.952, the phosphorylation enrichment [5] was 2.89 and the phosphorylation enrichment [6] was 1.84. For the same sequence, the phosphorylation enrichment [7] was 3.85, the phosphorylation enrichment [8] was 1.78 and the phosphorylation enrichment [9] was 1.71. For the same sequence, the phosphorylation enrichment [10] was 1.64, the phosphorylation enrichment [11] was 1.06 and the phosphorylation enrichment [12] was 4.16. The phosphorylation enrichment [13] was 3.64, the phosphorylation enrichment [14] was 1.27 and the phosphorylation enrichment [15] was 0.771. The phosphorylation enrichment [16] was 1.3.
LDPMVYMNDKS [PTK2B_Y834] gave an SH2 binding enrichment [1] of 0.792, an SH2 binding enrichment [2] of 1.01 and an SH2 binding enrichment [3] of 2.36. It also gave a phosphorylation enrichment [4] of 0.669, a phosphorylation enrichment [5] of 0.586 and a phosphorylation enrichment [6] of 0.727. The phosphorylation enrichment [7] was 1.25, the phosphorylation enrichment [8] was 0.678 and the phosphorylation enrichment [9] was 1.28. It also gave a phosphorylation enrichment [10] of 1.09, a phosphorylation enrichment [11] of 0.843 and a phosphorylation enrichment [12] of 0.648. For the same sequence, the phosphorylation enrichment [13] was 0.727, the phosphorylation enrichment [14] was 0.595 and the phosphorylation enrichment [15] was 0.55. For the same sequence, the phosphorylation enrichment [16] was 0.386.
KQINDYVEKGT [SERPINA1_Y184] showed an SH2 binding enrichment [1] of 0.585, an SH2 binding enrichment [2] of 0.528 and an SH2 binding enrichment [3] of 0.726. The phosphorylation enrichment [4] was 0.478, the phosphorylation enrichment [5] was 0.58 and the phosphorylation enrichment [6] was 0.491. For the same sequence, the phosphorylation enrichment [7] was 0.72, the phosphorylation enrichment [8] was 0.536 and the phosphorylation enrichment [9] was 0.905. For the same sequence, the phosphorylation enrichment [10] was 0.733, the phosphorylation enrichment [11] was 0.546 and the phosphorylation enrichment [12] was 0.374. For the same sequence, the phosphorylation enrichment [13] was 0.402, the phosphorylation enrichment [14] was 0.431 and the phosphorylation enrichment [15] was 0.44. For the same sequence, the phosphorylation enrichment [16] was 0.433.
In the case of RQQQDYWLKDV [ANPEP_Y600_I603K], the SH2 binding enrichment [1] is reported as 0.635, the SH2 binding enrichment [2] is reported as 0.675 and the SH2 binding enrichment [3] is reported as 1.01. For the same sequence, the phosphorylation enrichment [4] was 0.564, the phosphorylation enrichment [5] was 0.741 and the phosphorylation enrichment [6] was 0.484. It also gave a phosphorylation enrichment [7] of 1.25, a phosphorylation enrichment [8] of 0.495 and a phosphorylation enrichment [9] of 0.911. It also gave a phosphorylation enrichment [10] of 1.07, a phosphorylation enrichment [11] of 0.662 and a phosphorylation enrichment [12] of 0.52. For the same sequence, the phosphorylation enrichment [13] was 0.71, the phosphorylation enrichment [14] was 0.556 and the phosphorylation enrichment [15] was 0.305. It also gave a phosphorylation enrichment [16] of 0.322.

From the supplement of paper PMC10065799, “High-throughput profiling of sequence recognition by tyrosine kinases and SH2 domains using bacterial peptide display” (eLife, 2023)
